Publication PMC5932559, “Defective mitochondrial protease LonP1 can cause classical mitochondrial disease” (Human Molecular Genetics, 2018)
Changes are numbered by the printed parent chain. Names may count otherwise.

T1: wild-type LonP1 lacking the mitochondrial targeting sequence, C-terminal 6xHis (human, UniProt P36776-1 115-959)
T1 construct: called the mature protein; Hexamer at low salt with ATP, mostly monomer in 1 M NaCl without ATP; also called WT; LonP1 wild-type; source: pET-20b, induced with 1 mM IPTG, purified (His-Select nickel, HiTrap Heparin, MonoQ, Superdex 200)
T1 sequence (looked up): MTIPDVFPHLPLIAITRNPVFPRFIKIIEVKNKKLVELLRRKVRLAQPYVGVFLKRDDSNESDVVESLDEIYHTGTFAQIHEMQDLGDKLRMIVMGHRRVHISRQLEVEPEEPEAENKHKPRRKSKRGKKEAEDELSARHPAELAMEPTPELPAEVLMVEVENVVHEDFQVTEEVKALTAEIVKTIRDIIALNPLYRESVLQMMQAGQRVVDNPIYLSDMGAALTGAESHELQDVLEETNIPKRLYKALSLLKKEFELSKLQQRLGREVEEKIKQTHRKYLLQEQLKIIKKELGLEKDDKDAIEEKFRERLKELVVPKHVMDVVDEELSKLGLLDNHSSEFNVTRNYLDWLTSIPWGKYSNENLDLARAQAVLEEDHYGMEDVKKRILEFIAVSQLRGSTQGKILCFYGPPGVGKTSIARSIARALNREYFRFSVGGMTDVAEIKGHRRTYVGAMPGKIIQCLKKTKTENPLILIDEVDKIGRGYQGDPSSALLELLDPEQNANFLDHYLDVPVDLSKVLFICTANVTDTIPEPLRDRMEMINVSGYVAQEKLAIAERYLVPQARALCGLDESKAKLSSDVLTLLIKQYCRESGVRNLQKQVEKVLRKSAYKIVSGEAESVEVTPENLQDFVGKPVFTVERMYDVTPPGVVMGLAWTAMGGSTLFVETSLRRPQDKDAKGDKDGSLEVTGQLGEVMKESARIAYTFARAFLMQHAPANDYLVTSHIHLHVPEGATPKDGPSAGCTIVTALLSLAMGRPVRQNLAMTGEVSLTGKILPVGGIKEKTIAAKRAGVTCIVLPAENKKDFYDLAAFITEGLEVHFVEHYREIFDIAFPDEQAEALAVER

T2: TFAM (UniProt Q00059 43-246, NT-547-maleimide dye on cysteine (for microscale thermophoresis))
T2 chain: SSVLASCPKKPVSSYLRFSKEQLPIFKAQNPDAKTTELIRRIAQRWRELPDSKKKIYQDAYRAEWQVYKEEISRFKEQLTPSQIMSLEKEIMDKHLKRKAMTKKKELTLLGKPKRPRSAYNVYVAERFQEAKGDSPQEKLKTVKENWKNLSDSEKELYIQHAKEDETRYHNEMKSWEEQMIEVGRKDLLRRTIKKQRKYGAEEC

B1: TFAM (natural protein, UniProt Q00059 43-246, looked up)
chain: T2 chain
modifications: NT-547-maleimide dye on cysteine (for microscale thermophoresis)
notes: TFAM, the mitochondrial transcription and mtDNA packaging factor and a LonP1 substrate; recombinant; It was unlabelled in the proteolysis assays; also called TFAM substrate
B2: wild-type LonP1 lacking the mitochondrial targeting sequence, C-terminal 6xHis (enzyme)
chain: T1 sequence (looked up)
B3: p.(Glu733Lys) LonP1 mutant lacking the mitochondrial targeting sequence, C-terminal 6xHis (enzyme, human, UniProt P36776-1 115-959, looked up)
chain: T1 sequence (looked up) with E619K
notes: A variant found in a patient and in ExAC; also called E733K; hGlu733Lys
B4: p.(Tyr565His) LonP1 mutant lacking the mitochondrial targeting sequence, C-terminal 6xHis (enzyme, human, UniProt P36776-1 115-959, looked up)
chain: T1 sequence (looked up) with Y451H
notes: A variant found in a patient and in ExAC; also called Y565H; hTyr565His

Key:
[1] = target: T3, 1:1 mixture of wild-type and p.(Tyr565His) LonP1, oligomerised by dialysis from high salt (human, UniProt P36776-1 115-959; P36776-1 115-959, p.(Tyr565His)); assay: MST; as a3, with 4 mM AMP-PNP; LonP1 forms or 1:1 mixtures titrated (2.3-4650 nM) against labelled TFAM; 24°C; conditions: both partners purified
T3 construct: as the chain of m1; as the chain of m2; also called WT/Y565H; WT + Y565H; source: equimolar purified LonP1 forms mixed in high salt, oligomerised by dialysis

[2] = target: T4, 1:1 mixture of wild-type and p.(Glu733Lys) LonP1, oligomerised by dialysis from high salt (human, UniProt P36776-1 115-959; P36776-1 115-959, p.(Glu733Lys)); assay: as above; conditions: both partners purified
T4 construct: as the chain of m1; as the chain of m3; The make-up of the oligomers (heterohexamers or separate homohexamers) was not determined; also called WT/E733K; WT + E733K; source: equimolar purified LonP1 forms mixed in high salt, oligomerised by dialysis

[3] = target: T1, wild-type LonP1 lacking the …; assay: MST; TFAM labelled with NT-547-maleimide, unlabelled LonP1 titrated (2.3-4650 nM); MST buffer (50 mM Tris-HCl pH 8.0, 10 mM MgCl2, 10% glycerol) without nucleotide; 24°C; Monolith NT.115; conditions: both partners purified
[4] = target: B3; assay: as above; conditions: both partners purified
TFAM = target: T2, TFAM; assay: MST; 4 mM AMP-PNP
[5] = target: the molecule itself; assay: SEC; Superose 6 Increase 10/300; 20 mM Tris-HCl pH 8.0, 10% glycerol, 2 mM DTT, 50 mM NaCl, 10 mM MgCl2, samples incubated 10 min at 37°C with ATP (1 mM in the methods, 4 mM in the legend); fractions on SDS-PAGE, size calibration curve; in 1 M NaCl without ATP higher-order oligomers were largely prevented

B1
Kd [1]: 3.22 µM
Kd [2]: 2.17 µM
Kd [3]: 1.36 µM
Kd [4]: 1.52 µM

B2
Kd (TFAM): 2.2 µM

B3
stoichiometry N [5]: 6

B4
stoichiometry N [5]: 6
